Reference: the nanobody polyreactivity screen of Harvey et al. (2022)

Assay: yeast display, Sf9 membrane polyspecificity reagent, FACS + sequencing; frameworks hold sequencing errors
Summary of the method: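 A synthetic nanobody library was expressed on Saccharomyces cerevisiae BJ5465 by galactose induction for 36–48 hours. The library was stained for 1 hour at 4 °C with 10% biotinylated, detergent-solubilized Sf9 membrane reagent and enriched with streptavidin microbeads before FACS. Low and high (top ~1%) gates were set on anti-HA fluorescence for expression and streptavidin fluorescence for reagent binding, and each polyreactivity label reflects the gate of origin.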

Row | Sequence | polyreactivity (PSR sort gate)
1 | QVQLVESGGGLVQAGGSLRLSCAASGIILPYYAMGWYRQAPGKEREFVATISSDGTSTYYADSVKGRFTISRDNAKNTVYLQMNSLKPEDTAVYYCAARIRQNPGGDNSWGQGTQVTVSS | low polyreactivity
2 | QVQLVESGGGLVQAGGSLRLSCAASGIILQKYTMGWYRQAPGKERELVAASTRSGGSTYYADSVKGRFTISRDNAKNTVYLQMNSLKPEDTAVYYCYGYEYWGQGTQVTVSS | high polyreactivity
3 | QVQLVESGGGLVQAGGSLRLSCAASGIILVAYAMGWYRPAPGKERELVAAITTSGTSTYYADSVKGRFTISRDNAKNTVYVQMNSLTPEDTAVYYCAVRQRYGPARYDYWGQGTQVTVSS | high polyreactivity
4 | QVQLVESGGGLVQAGGSLRLSCAASGIILYDYAMGWYRQAPGKERELVAGINRSGGITYYADSVKGRFTISRDNAKNTVYLQMNSLKPEDTAVYYCNAVFRYGATRSYRYDYWGQGTQVTVSS | high polyreactivity
5 | QVQLVESGGGLVQAGGSLRLSCAASGIILYGYAMGWSRQAPGKERELVAAITKSGGSTYYADSVKGRFTISRDNAKNTVYLQMNSLKPEDTAVYYCAAKRWGIWYYGYRPDDYWGQGTQVTVSS | low polyreactivity
6 | QVQLVESGGGLVQAGGSLRLSCAASGIISGRTGMGWYRQATGKERELVASISDSGSSTYYADSVKGRFTISRDNAKNTVYLQMNSLKPEDTAVYYCATDLLASRYGYWGQGTQVTVSS | low polyreactivity
7 | QVQLVESGGGLVQAGGSLRLSCAASGIISIFNVMGWYRQAPGKERELVASITGRGGSTFYADSVKGRFTISRDNAKNTVYLQMNRLKPEDTAVYYCATDTGYTYPVTGLYDYWGQGTQVTVSS | low polyreactivity
8 | QVQLVESGGGLVQAGGSLRLSCAASGIISYYYAMGWYRQAPGKERELVAAISSSGNTYYADSVKGRFTISRDNAKNTVYLQMNSLKPEDTAVYYCAAESYGYYAADDDNYLTWYDYWGQGTQVTVSS | high polyreactivity
9 | QVQLVESGGGLVQAGGSLRLSCAASGIIVPNAMGWYRPAPGKERELVAAMSRSGGSTNYADSVKGRFTISRDNAKNTVYLQMNSLKPEDTAVYYCATKYNADTRYDYWGQGTQVTVSS | low polyreactivity
10 | QVQLVESGGGLVQAGGSLRLSCAASGIIYAYYAMGWYRLAPGKEREWVAGISSSGITNYADSVKGRFTISRDNAKNTVYLQMNSLKPEDTAVYSCATDWYYWRHFYWVRRGVRYYYWGQGTQVTVSS | high polyreactivity
11 | QVQLVESGGGLVQAGGSLRLSCAASGIKLYYYAMGWYRQAPGKETEFVAAIAGSGGSTRYADSVKGRFTISRDNAKKTVYLQMNSLKPEDTAVYYFAARSRYGYITFDYWGQGTQVTVSS | high polyreactivity
12 | QVQLVESGGGLVQAGGSLRLSCAASGILFGGYVMGWDRQAPGKERELVAAISRGGGITYYADSVKGRFTISRDNAKNTVYLQMNSLKPEDPAVYYCNAGVYAGQTGYDYWGQGTQVTVSS | high polyreactivity
13 | QVQLVESGGGLVQAGGSLRLSCAASGILFRFYAMGWYRQAPGKERELVAAISSGGSTYYADSVKGRFTISRDNAKNTVYLQMNSLKPEDTAVYYCNAGRKSTLVGYVRFYYWGQGTQVTVSS | high polyreactivity
14 | QVQLVESGGGLVQAGGSLRLSCAASGILRANAIGWYRQAPGKERELVATINGDGATYADSVKGRFTISRDNAKNTVYLQLNSLKPEDTAVYYCAAGGGWVVKYDYWGQGTQVTVSS | low polyreactivity
15 | QVQLVESGGGLVQAGGSLRLSCAASGINFDDYAMGWYRQAPGTERELVAAITWNGGRTYYADSVKGRFTISRDNAKNTVYLKMNSLKPEDTEVYYCAARITNPAKYNYWGQGTQVTVSS | high polyreactivity
16 | QVQLVESGGGLVQAGGSLRLSCAASGINFRSYAMGWYRQAPGKERELVAAISSTGRTYYADSVKGRFTISRDNAKNTVYLQMISLKPEDTAVYYCNSKRYIWGQGTQVTVSS | high polyreactivity

Row | Sequence | polyreactivity (PSR sort gate)
17 | QVQLVESGGGLVQAGGSLRLSCAASGINFTVYAMGWYRQAPGKVRELVATISRRGGNTFYADSVKGRVTISRDNAKKTVYLKMNSLTPEDTAVYYCAARRYVDYRWDYGYWGQGTQVTVSS | high polyreactivity
18 | QVQLVESGGGLVQAGGSLRLSCAASGINFYSYAMGWYRQAPAKERELVAAITLTVGTTYYADSVKGRFTISRDIEKNTVSLKMNSVKREDTACYYCAAQYWWWSRFEYESWGQGTQVTVSS | low polyreactivity
19 | QVQLVESGGGLVQAGGSLRLSCAASGINIKYNTMGWYRQAPGKERELVAAISSSGGTKYYADSVKGRFTISRDNAKNTVYLQMNSLKPEDTAVYYCAAGANAQRVPNGDYWGQGTQVTVSS | low polyreactivity
20 | QVQLVESGGGLVQAGGSLRLSCAASGINYSRYAMGWYRQAPGKERELVAAISSGGSTNYADSVKGRFTISRDNAKNTVYLQMNSLKPEDTAVYYCAAETRLHRQDYDYWGQGTQVTVSS | low polyreactivity
21 | QVQLVESGGGLVQAGGSLRLSCAASGISDWYAMGWSRQAPGKERELVASITDGGSTKYADSVKGRFTISRDNAKNTVYLQMNSLKPEDTAVYYCNNTFRVYFSRSWWSRYYYWGQGTQVTVSS | low polyreactivity
22 | QVQLVESGGGLVQAGGSLRLSCAASGISDWYAMGWYRQAPGKERELVASITDGGSTKYADSVKGRFTISRDNAKNTVYLQMNSLKPEDTAVYYCNTTFRVYFSRSWWSRYYYWGLGTQVTVSS | low polyreactivity
23 | QVQLVESGGGLVQAGGSLRLSCAASGISFSYYAMGWYRQAPGKERELVAAITSSGGSTYYADSVKGRFTISRDNEKNTVYLQMTSLKPEDTAVYYCNAKRAPWGTLYNYWGLGTQVTVSS | high polyreactivity
24 | QVQLVESGGGLVQAGGSLRLSCAASGISFYRYAMGWYRQAPGKERELVAAITGSGDSTYYADSVKGRFSISRDNAKNTVYLQMNSLKPEDTAVYYCNTDYGRRYDYWGQGTQVTVSS | high polyreactivity
25 | QVQLVESGGGLVQAGGSLRLSCAASGITFAEYAMGWYRQAPGKERELVAAINGGGGSTYYADSVKGRFTISRDNAKNTVYLQMNSLKPEDTAVYYCAARYRGWSGGYDYWGQGTQVTVSS | high polyreactivity
26 | QVQLVESGGGLVQAGGSLRLSCAASGITFAFYAMGWYRQAPGKERELVAAISWSGTRTYYADSVKGRFTISRDNAKNTVYLQMNSLKPEDTAVYYCAADFQAGDKLYDYWGQGTQVTVSS | low polyreactivity
27 | QVQLVESGGGLVQAGGSLRLSCAASGITFAFYAMGWYRQAPGKERELVAAISWSGTRTYYADSVKGRFTISRDNAKNTVYLQMNSLKPEDTAVYYCAADYQAGYKMFDYWGQGTQVTVSS | low polyreactivity
28 | QVQLVESGGGLVQAGGSLRLSCAASGITFAPYAMGWYRQAPGKERELVATITWSGGSTYYADSVKGRFTISRDNAKNTVYLQMNSLKPEDTAVYYCAAYNDTVPSAAHIYESWGQGTQVTVSS | low polyreactivity
29 | QVQLVESGGGLVQAGGSLRLSCAASGITFARYAMGWYRQAPGKARELVAAISRSGGSTYYADSVKGRFTSSRDNAKNTVYLQMNSLKPEDSAVYYCAAGGRVRRNKFDDWGQGTQVTVAS | high polyreactivity
30 | QVQLVESGGGLVQAGGSLRLSCAASGITFARYAMGWYRQAPGKETELVAALSKRGGRTYYADSVKGRFTISRDNAKNTVYLQMNSLKPEDTAVYYCATDYYVSTDYNYWGQGTQVTVSS | high polyreactivity
31 | QVQLVESGGGLVQAGGSLRLSCAASGITFAWYAMGWYRQAPGKERELVAAISRSGGSTYYADSVKGRFTISRDNAKNTVYLQMNSLKPEDTAVYYCADRASPRFNYWGQGTQVTVSS | high polyreactivity
32 | QVQLVESGGGLVQAGGSLRLSCAASGITFAYYVKGWYRQAPGKERQLVAAITRSGDITSYADSVKGRFTISRDNAKNTVYLQMNSLKPEDTAVYYCNARRGYQSRRYNYWGQGTQVTVSS | high polyreactivity
